Patent US20240228618A1 (Janssen / Centocor, published 2024)

Biological target: human CD123 (human, UniProt P26951 19-378)
Experiment: cell-based or functional assay

Sequence of human CD123 (P26951 19-378): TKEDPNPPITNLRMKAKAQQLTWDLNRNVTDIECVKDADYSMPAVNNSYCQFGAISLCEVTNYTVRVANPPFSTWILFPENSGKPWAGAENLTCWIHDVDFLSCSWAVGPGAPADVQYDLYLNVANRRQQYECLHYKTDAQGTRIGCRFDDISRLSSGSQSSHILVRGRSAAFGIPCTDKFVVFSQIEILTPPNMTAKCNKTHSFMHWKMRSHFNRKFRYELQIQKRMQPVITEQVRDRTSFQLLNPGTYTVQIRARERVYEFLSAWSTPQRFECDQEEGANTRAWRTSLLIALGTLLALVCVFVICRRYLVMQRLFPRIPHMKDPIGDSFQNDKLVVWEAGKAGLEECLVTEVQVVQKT

B1: CD123×CD3 bispecific antibody (bispecific antibody, human IgG4 S228P, kappa, lambda, F234A L235A)
heavy 1: not shown
light 1: EIVLTQSPGTLSLSPGERATLSCRASQSVSSSYLAWYQQKPGQAPRLLIYGASSRATGIPDRFSGSGSGTDFTLTISRLEPEDFAVYYCQQDYGFPWTFGQGTKVEIKRTVAAPSVFIFPPSDEQLKSGTASVVCLLNNFYPREAKVQWKVDNALQSGNSQESVTEQDSKDSTYSLSSTLTLSKADYEKHKVYACEVTHQGLSSPVTKSFNRGEC
heavy 2: EVQLVESGGGLVQPGGSLKLSCAASGFTFNTYAMNWVRQASGKGLEWVGRIRSKYNAYATYYAASVKGRFTISRDDSKNTAYLQMNSLKTEDTAVYYCTRHGNFGNSYVSWFAYWGQGTLVTVSSASTKGPSVFPLAPCSRSTSESTAALGCLVKDYFPEPVTVSWNSGALTSGVHTFPAVLQSSGLYSLSSVVTVPSSSLGTKTYTCNVDHKPSNTKVDKRVESKYGPPCPPCPAPEAAGGPSVFLFPPKPKDTLMISRTPEVTCVVVDVSQEDPEVQFNWYVDGVEVHNAKTKPREEQFNSTYRVVSVLTVLHQDWLNGKEYKCKVSNKGLPSSIEKTISKAKGQPREPQVYTLPPSQEEMTKNQVSLTCLVKGFYPSDIAVEWESNGQPENNYKTTPPVLDSDGSFLLYSKLTVDKSRWQEGNVFSCSVMHEALHNHYTQKSLSLSLGK
light 2: QAVVTQEPSLTVSPGGTVTLTCRSSTGAVTTSNYANWVQQKPGQAPRGLIGGTNKRAPGTPARFSGSLLGGKAALTLSGAQPEDEAEYYCALWYSNLWVFGGGTKLTVLGQPKAAPSVTLFPPSSEELQANKATLVCLISDFYPGAVTVAWKADSSPVKAGVETTTPSKQSNNKYAASSYLSLTPEQWKSHRSYSCQVTHEGSTVEKTVAPTECS
EC50 of T cell-mediated cytotoxicity, target HL-60, HS-5 stroma, no anti-CD44, 48 h: 0.142 nM
EC50 of T cell-mediated cytotoxicity, target HL-60, HS-5 stroma, with anti-CD44, 48 h: 0.0762 nM
EC50 of T cell-mediated cytotoxicity, target HL-60, no stroma, no anti-CD44, 48 h: 0.0868 nM
EC50 of T cell-mediated cytotoxicity, target HL-60, no stroma, with anti-CD44, 48 h: 0.0808 nM
EC50 of T cell-mediated cytotoxicity, target KG-1, HS-5 stroma, no anti-CD44, 48 h: 0.0319 nM
EC50 of T cell-mediated cytotoxicity, target KG-1, HS-5 stroma, with anti-CD44, 48 h: 0.0265 nM
EC50 of T cell-mediated cytotoxicity, target KG-1, no stroma, no anti-CD44, 48 h: 0.0028 nM
EC50 of T cell-mediated cytotoxicity, target KG-1, no stroma, with anti-CD44, 48 h: 0.0009 nM
EC50 of T cell-mediated cytotoxicity, target MOLM-13, HS-5 stroma, no anti-CD44, 48 h: 0.0262 nM
EC50 of T cell-mediated cytotoxicity, target MOLM-13, HS-5 stroma, with anti-CD44, 48 h: 0.153 nM
EC50 of T cell-mediated cytotoxicity, target MOLM-13, no stroma, no anti-CD44, 48 h: 0.0362 nM
EC50 of T cell-mediated cytotoxicity, target MOLM-13, no stroma, with anti-CD44, 48 h: 0.0125 nM
EC50 of T cell-mediated cytotoxicity, target MV4-11, HS-5 stroma, no anti-CD44, 48 h: 0.0057 nM
EC50 of T cell-mediated cytotoxicity, target MV4-11, HS-5 stroma, with anti-CD44, 48 h: 0.0025 nM
EC50 of T cell-mediated cytotoxicity, target MV4-11, no stroma, no anti-CD44, 48 h: 0.0056 nM
EC50 of T cell-mediated cytotoxicity, target MV4-11, no stroma, with anti-CD44, 48 h: 0.0026 nM
EC50 of T cell-mediated cytotoxicity, target SKNO-1, HS-5 stroma, no anti-CD44, 48 h: 0.0757 nM
EC50 of T cell-mediated cytotoxicity, target SKNO-1, HS-5 stroma, with anti-CD44, 48 h: 0.108 nM
EC50 of T cell-mediated cytotoxicity, target SKNO-1, no stroma, no anti-CD44, 48 h: 0.0111 nM
EC50 of T cell-mediated cytotoxicity, target SKNO-1, no stroma, with anti-CD44, 48 h: 0.0077 nM
